The target of experiment [1] is T1, Hu FcRn (BPS Bioscience) (human, UniProt P55899 24-297; P61769 21-119).
T1 construct: Bought recombinant protein coated on ELISA plates; also called human FcRn; human neonatal Fc receptor
Put plainly: ELISA, huFcRn coated, pH 6. As to the method: The binding of AFFIMER® to Hu-FcRn was evaluated by enzyme linked immunosorbent assay (ELISA) in 384 well plate format. Hu FcRn (BPS Bioscience) was coated at 5 μg/ml on the plate in 40 mM MES, pH 6. Plates were washed 3 times with 100 μl of washing buffer (PBS, Tween 20 0.05%, pH 6) with a plate washer and saturated with Casein 5% (Sigma) in MES pH6 for 60 minutes at room temperature (25±1° C.). Plates were washed as described previously. AFFIMER® and negative controls (mAb anti hFcRn (clone ADM31), negative controls) were then diluted in duplicate, and loaded on the plate for 90 minutes at room temperature (25±1° C.). Plates were washed 3 times as described previously. Biotinylated polyclonal antibody anti Cystatin (R&D Systems) was then diluted in dilution Buffer (1% casein, 0.05% Tween 20, and 8 mM MES. It is in pH6) and incubated 60 minutes at room temperature (25±1° C.). Plates were washed 3 times as described previously and Streptavidin HRP (N200, thermo-Fisher) was incubated for 30 minutes at room temperature (25±1° C.). Plates were washed and the substrate (TMB, Pierce Thermo-Scientific) was added in the plate for 8±1 minute. The reaction was stopped using an acidic solution and plates were read at 450-630 nm. The EC50 was then calculated using the interpolated non-linear four-parameters standard curve (Table 4).
For orientation: ELISA stands for enzyme-linked immunosorbent assay.

In experiment [2] the target is T1, Hu FcRn (BPS Bioscience). Put plainly: ELISA, huFcRn coated, pH 7.4. As to the method:
(§1) The binding of AFFIMER® to hu-FcRn was evaluated by enzyme linked immunosorbent assay (ELISA) in 384 well plate format. Hu FcRn (BPS Bioscience) was coated at 5 μg/ml on the plate in PBS, pH 7.4. Plates were washed 3 times with 100 μl of washing buffer (PBS, Tween 20 0.05%, pH 7.4) with a plate washer and saturated with Casein 5% (Sigma) in MES pH 7.4 for 60 minutes at room temperature (25±1° C.). Plates were washed as described previously. AFFIMER® and controls (mAb anti hFcRn (ADM31), blank) were then diluted in duplicate, and loaded on the plate for 90 minutes at room temperature (25±1° C.). Plates were washed 3 times as described previously. Biotinylated polyclonal antibody anti Cystatin (R&D Systems) was then diluted in dilution Buffer (1% casein, 0.01% Tween 20, and 8 mM MES. It is in pH 7.4) and incubated 60 minutes at room temperature (25±1° C.). Plates were washed 3 times as described previously and Streptavidin HRP (N200, thermo-Fisher) was incubated for 30 minutes at room temperature (25±1° C.). Plates were washed and the substrate (TMB, Pierce Thermo-Scientific) was added in the plate for 8±1 minute. The reaction was stopped using an acidic solution and plates were read at 450-630 nm.

Experiment [3] concerns the target T1, Hu FcRn (BPS Bioscience). In words: ELISA, huFcRn coated, purified Affimer, pH 6. As to the method: (§2) The binding of AFFIMER® to hu-FcRn was evaluated by enzyme linked immunosorbent assay (ELISA) in 384 well plate format. Hu FcRn (BPS Bioscience) was coated at 5 μg/ml on the plate in 40 mM MES, pH 6. Plates were washed 3 times with 100 ul of washing buffer (PBS, Tween 20 0.05%, pH 6) with a plate washer and saturated with Casein 5% (Sigma) in MES pH 6 for 60 minutes at room temperature (25±1° C.). Plates were washed as described previously. AFFIMER® and negative controls (mAb anti hFcRn (clone ADM31), negative controls) were then diluted in duplicate, and loaded on the plate for 90 minutes at room temperature (25±1° C.). Plates were washed 3 times as described previously. Biotinylated polyclonal antibody anti Cystatin (R&D Systems) was then diluted in dilution buffer (1% casein, 0.05% Tween 20, and 8 mM MES, pH 6) and incubated 60 minutes at room temperature (25±1° C.). Plates were washed 3 times as described previously and Streptavidin HRP (N200, Thermo-Fisher) was incubated for 30 minutes at room temperature (25±1° C.). Plates were washed and the substrate (TMB, Pierce Thermo-Scientific) was added in the plate for 8±1 minute. The reaction was stopped using an acidic solution and plates were read at 450-630 nm. The EC₅₀ was then calculated using the interpolated non-linear four-parameters standard curve (FIGS. 5A-5B and Table 5A).

The target of experiment [4] is T1, Hu FcRn (BPS Bioscience). In words: ELISA, huFcRn coated, purified Affimer, pH 7.4. As to the method: as §1, with “100 ul” for “100 μl”, “in pH7.4)” for “in pH 7.4)”, “nm. The EC₅₀ was then calculated using the interpolated non-linear four-parameters standard curve (FIGS. 5A-5B, Table 5A).” for “nm.”
In experiment [5] the target is T1, Hu FcRn (BPS Bioscience). In words: ELISA, huFcRn coated; ratio of the EC50 at the two pH values. As to the method:
as §2
The binding of AFFIMER® to hu-FcRn was evaluated by enzyme linked immunosorbent assay (ELISA) in 384 well plate format. Hu FcRn (BPS Bioscience) was coated at 5 μg/ml on the plate in PBS, pH 7.4. Plates were washed 3 times with 100 ul of washing buffer (PBS, Tween 20 0.05%, pH 7.4) with a plate washer and saturated with Casein 5% (Sigma) in MES pH 7.4 for 60 minutes at room temperature (25±1° C.). Plates were washed as described previously. AFFIMER® and controls (mAb anti hFcRn (ADM31), blank) were then diluted in duplicate, and loaded on the plate for 90 minutes at room temperature (25±1° C.). Plates were washed 3 times as described previously. […]

Experiment [6] addresses T1, Hu FcRn (BPS Bioscience). Put plainly: ELISA, huFcRn coated, purified Affimer fusion, pH 6. As to the method:
as §2

In experiment [7] the target is T1, Hu FcRn (BPS Bioscience). In words: ELISA, huFcRn coated, purified Affimer fusion, pH 7.4. As to the method: as §1, with “100 ul” for “100 μl”, “in pH7.4)” for “in pH 7.4)”, “nm. The EC₅₀ was then calculated using the interpolated non-linear four-parameters standard curve (FIGS. 5A-5B, Table 5A).” for “nm.”

T1 sequence (P55899 24-297 limits assumed, chain 1 of 2): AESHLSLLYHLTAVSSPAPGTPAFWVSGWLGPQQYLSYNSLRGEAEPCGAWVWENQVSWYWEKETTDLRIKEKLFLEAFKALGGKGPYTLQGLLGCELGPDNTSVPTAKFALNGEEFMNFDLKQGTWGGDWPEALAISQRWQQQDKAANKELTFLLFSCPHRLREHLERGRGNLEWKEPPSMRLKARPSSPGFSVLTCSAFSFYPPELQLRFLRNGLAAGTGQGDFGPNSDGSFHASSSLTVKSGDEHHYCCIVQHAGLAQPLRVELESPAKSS
T1 sequence (P61769 21-119 limits assumed, chain 2 of 2): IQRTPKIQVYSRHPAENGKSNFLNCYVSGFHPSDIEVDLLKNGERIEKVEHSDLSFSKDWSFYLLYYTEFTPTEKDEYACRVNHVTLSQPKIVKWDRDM

B1: FcRn-35 (designed binder)
chain: MIPRGLSEAKPATPEIQEIVDKVKPQLEEKTNETYGKLEAVQYKTQVLAHRQYPPGPHSTNYYIKVRAGDNKYMHLKVFNGPYHFHHYYKHADRVLTGYQVDKNKDDELTGFHHHHHH
notes: AFFIMER (stefin A variant); also called LGC01-35
As usually defined, the EC50 is the concentration at which the effect is half-maximal. Low values mean greater potency, high ones weaker potency. Consider B1, for which the EC50 came to 47.9 nM in the experiment with Hu FcRn (BPS Bioscience) [1], 225 nM in the experiment with Hu FcRn (BPS Bioscience) [2], 0.673 nM with Hu FcRn (BPS Bioscience) [3] and 113 nM in the experiment with Hu FcRn (BPS Bioscience) [4]. Also, the “pH 6/pH 7.4 (EC50 ratio)” value with Hu FcRn (BPS Bioscience) [5] was found to be 168.

B2: AVA04-251 FX6 (designed binder)
chain: MIPRGLSEAKPATPEIQEIVDKVKPQLEEKTNETYGKLEAVQYKTQVLALSFNNYHWHSTNYYIKVRAGDNKYMHLKVFNGPKLRHDKLTHADRVLTGYQVDKNKDDELTGFAEAAAKEAAAKEAAAKEAAAKEAAAKEAAAKMIPRGLSEAKPATPEIQEIVDKVKPQLEEKTNETYGKLEAVQYKTQVLAREGRQDWVLSTNYYIKVRAGDNKYMHLKVFNGPWVPFPHQQLADRVLTGYQVDKNKDDELTGFAEAAAKEAAAKEAAAKEAAAKEAAAKEAAAKMIPRGLSEAKPATPEIQEIVDKVKPQLEEKTNETYGKLEAVQYKTQVLAREGRQDWVLSTNYYIKVRAGDNKYMHLKVFNGPWVPFPHQQLADRVLTGYQVDKNKDDELTGFHHHHHH
As for B2, the concentration giving a half-maximal response (EC50) with Hu FcRn (BPS Bioscience) [6] was 0.03 nM; with Hu FcRn (BPS Bioscience) [7] it was 4.3 nM. In addition, the “pH 6/pH 7.4 (EC50 ratio)” value with Hu FcRn (BPS Bioscience) [5] was 143.

B3: FcRn-120 (designed binder)
chain: MIPRGLSEAKPATPEIQEIVDKVKPQLEEKTNETYGKLEAVQYKTQVLAKHKYHHTGHSTNYYIKVRAGDNKYMHLKVFNGPGQIHKVRSTADRVLTGYQVDKNKDDELTGFHHHHHH
notes: AFFIMER (stefin A variant)
With B3, the EC50 with Hu FcRn (BPS Bioscience) [3] worked out at 50.5 nM.

B4: FcRn-38 (designed binder)
chain: MIPRGLSEAKPATPEIQEIVDKVKPQLEEKTNETYGKLEAVQYKTQVLALSFNNYHWHSTNYYIKVRAGDNKYMHLKVFNGPKLRHDKLTHADRVLTGYQVDKNKDDELTGFHHHHHH
notes: AFFIMER (stefin A variant); also called LGC01-38
As for B4, the EC50 came out at 0.14 nM in the experiment with Hu FcRn (BPS Bioscience) [1], 0.895 nM in the experiment with Hu FcRn (BPS Bioscience) [2], 0.003 nM with Hu FcRn (BPS Bioscience) [3] and 0.5 nM with Hu FcRn (BPS Bioscience) [4]. Moreover, in the experiment with Hu FcRn (BPS Bioscience) [5], the “pH 6/pH 7.4 (EC50 ratio)” value worked out at 167.

B5: FcRn-15 (designed binder)
chain: MIPRGLSEAKPATPEIQEIVDKVKPQLEEKTNETYGKLEAVQYKTQVLAHNHRHYSKGSTNYYIKVRAGDNKYMHLKVFNGPAFNDGAVFIADRVLTGYQVDKNKDDELTGFHHHHHH
notes: also called LGC01-15
In turn, B5 yielded an EC50 in the experiment with Hu FcRn (BPS Bioscience) [1] of 74.1 nM. This lies in the double-digit nanomolar range.

B6: FcRn-125 (designed binder)
chain: MIPRGLSEAKPATPEIQEIVDKVKPQLEEKTNETYGKLEAVQYKTQVLADHRPRHPKHSTNYYIKVRAGDNKYMHLKVFNGPAHKHHLGFKADRVLTGYQVDKNKDDELTGFHHHHHH
notes: AFFIMER (stefin A variant)
For B6, the EC50 in the experiment with Hu FcRn (BPS Bioscience) [3] stood at 187 nM.

(Values after patent US20230097573A1 (LG CHEM, published 2023).)
